Results published in paper PMC8163826.
Read-outs that look alike come from different tables or passages of the source.

Assays:
[1] = target: RSV CA protein (Rous sarcoma virus); assay: cryo-EM structure; single-particle cryo-EM of T = 1 and T = 3 icosahedral CLPs; 500 µM CA assembled in 1 M NaPO4 at pH 8, diluted 1:4
[2] = target: RSV CA protein (Rous sarcoma virus); assay: as above; remark: listed apart in the source
[3] = target: RSV CASPNC (Rous sarcoma virus); assay: cryo-EM structure; cryo-electron tomography and subtomogram averaging of CASPNC CLPs (regular tubes and polyhedrons) assembled in the presence of 100 µM IP6
[4] = target: RSV CASPNC (Rous sarcoma virus); assay: as above; remark: listed apart in the source

Row | Substance | stoichiometry N [1] | stoichiometry N [2] | stoichiometry N [3] | stoichiometry N [4]
1 | RSV CA protein (natural protein) | 6 | 5 |  | 
2 | RSV CASPNC (domain or fragment) |  |  | 5 | 6
